Sequences and labels used below:
B1: eukaryotic translation factor 5A-1 (eIF5A-1), residues 15-151 [human] / deoxyhypusine synthase, wild type, His-tagged [human] (parent complex)
chain 1: not shown
chain 2: MEGSLEREAPAGALAAVLKHSSTLPPESTQVRGYDFNRGVNYRALLEAFGTTGFQATNFGRAVQQVNAMIEKKLEPLSQDEDQHADLTQSRRPLTSCTIFLGYTSNLISSGIRETIRYLVQHNMVDVLVTTAGGVEEDLIKCLAPTYLGEFSLRGKELRENGINRIGNLLVPNENYCKFEDWLMPILDQMVMEQNTEGVKWTPSKMIARLGKEINNPESVYYWAQKNHIPVFSPALTDGSLGDMIFFHSYKNPGLVLDIVEDLRLINTQAIFAKCTGMIILGGGVVKHHIANANLMRNGADYAVYINTAQEFDGSDSGARPDEAVSWGKIRVDAQPVKVYADASLVFPLLVAETFAQKMDAFMHEKNED

The first test covers variants of B1. The experiment in a line: MST; read off a plot.
Consider chain 2 S240A, for which the EC50 (as a rule, the concentration at which the effect is half-maximal) was ~2000 nM. For the variant chain 2 F272A, the EC50 is ~400 nM. The same measure, in the same setting: next, chain 2 Q83A: ~7000 nM; chain 2 I271A: ~50 nM. The same measure, in the same setting: as for chain 2 M244A, the figure is ~12000 nM; as for chain 2 Y250A, ~45000 nM. On the same count and under the same terms, as for chain 2 L295A, the figure is ~300 nM; as for chain 2 N173A, ~13000 nM; as for chain 2 Y176A, ~700 nM.

The variants in another test derive from B1. The experiment in a line: MST; highest eIF5A concentration of the titration, est. 6e-5 M; read off a plot.
chain 2 F247A: the response is ~0.33 fraction bound.

The variants in another test derive from B1. The experiment in a line: MST; read off a plot. This is another data set of the same source.
Take chain 2 D243A: the EC50 was ~500 nM.

Consider chain 2 E137A, for which the EC50 is ~45 nM. Consider chain 2 H288A, for which the EC50 was ~50 nM.

chain 2 W327A: the EC50 is ~600 nM. Same read-out and setting: next, chain 2 K329A: ~130 nM.

Source of the values: publication PMC10042821 (2023).
